Measurements as given in IntAct's records for PubMed 7538907.

B1: FAS-associated death domain protein (Homo sapiens), Q13158 (parent)
chain: MDPFLVLLHSVSSSLSSSELTELKFLCLGRVGKRKLERVQSGLDLFSMLLEQNDLEPGHTELLRELLASLRRHDLLRRVDDFEAGAAAGAAPGEEDLCAAFNVICDNVGKDWRRLARQLKVSDTKIDSIEDRYPRNLTERVRESLRIWKNTEKENATVAHLVGALRSCQMNLVADLVQEVQQARDLQNRSGAMSPMSWNSDASTSEAS
B2: Tumor necrosis factor receptor superfamily member 6 (Homo sapiens), P25445 (parent)
chain: MLGIWTLLPLVLTSVARLSSKSVNAQVTDINSKGLELRKTVTTVETQNLEGLHHDGQFCHKPCPPGERKARDCTVNGDEPDCVPCQEGKEYTDKAHFSSKCRRCRLCDEGHGLEVEINCTRTQNTKCRCKPNFFCNSTVCEHCDPCTKCEHGIIKECTLTSNTKCKEEGSRSNLGWLCLLLLPIPLIVWVKRKEVQKTCRKHRKENQGSHESPTLNPETVAINLSDVDLSKYITTIAGVMTLSQVKGFVRKNGVNEAKIDEIKNDNVQDTAEQKVQLLRNWHQLHGKKEAYDTLIKDLKKANLCTLAEKIQTIILKDITSDSENSNFRNEIQSLV

Variants of: B1
Details: with tnr6_human FAS

Variant	effect of a mutation on the interaction
MDPFLVLLHSVSSSLSSSELTELKFLCLGRVGKRKLERVQSGLDLFSMLLEQNDLEPGHTELLRELLASLRRHDLLRRVDDFEAGAAAGAAPGEEDLCAAFNVICDNVGKDWRRLARQLKNSDTKIDSIEDRYPRNLTERVRESLRIWKNTEKENATVAHLVGALRSCQMNLVADLVQEVQQARDLQNRSGAMSPMSWNSDASTSEAS [V121N]	decreasing interaction

Variants of: B2
Details: with fadd_human FADD

Variant	effect of a mutation on the interaction
MLGIWTLLPLVLTSVARLSSKSVNAQVTDINSKGLELRKTVTTVETQNLEGLHHDGQFCHKPCPPGERKARDCTVNGDEPDCVPCQEGKEYTDKAHFSSKCRRCRLCDEGHGLEVEINCTRTQNTKCRCKPNFFCNSTVCEHCDPCTKCEHGIIKECTLTSNTKCKEEGSRSNLGWLCLLLLPIPLIVWVKRKEVQKTCRKHRKENQGSHESPTLNPETVAINLSDVDLSKYITTIAGVMTLSQVKGFVRKNGNNEAKIDEIKNDNVQDTAEQKVQLLRNWHQLHGKKEAYDTLIKDLKKANLCTLAEKIQTIILKDITSDSENSNFRNEIQSLV [V254N]	decreasing interaction
